# Positions count from the first letter of the chain named. Names may count otherwise.
# T1: human prolactin receptor (human, UniProt P16471 25-622)
# T1 sequence (looked up): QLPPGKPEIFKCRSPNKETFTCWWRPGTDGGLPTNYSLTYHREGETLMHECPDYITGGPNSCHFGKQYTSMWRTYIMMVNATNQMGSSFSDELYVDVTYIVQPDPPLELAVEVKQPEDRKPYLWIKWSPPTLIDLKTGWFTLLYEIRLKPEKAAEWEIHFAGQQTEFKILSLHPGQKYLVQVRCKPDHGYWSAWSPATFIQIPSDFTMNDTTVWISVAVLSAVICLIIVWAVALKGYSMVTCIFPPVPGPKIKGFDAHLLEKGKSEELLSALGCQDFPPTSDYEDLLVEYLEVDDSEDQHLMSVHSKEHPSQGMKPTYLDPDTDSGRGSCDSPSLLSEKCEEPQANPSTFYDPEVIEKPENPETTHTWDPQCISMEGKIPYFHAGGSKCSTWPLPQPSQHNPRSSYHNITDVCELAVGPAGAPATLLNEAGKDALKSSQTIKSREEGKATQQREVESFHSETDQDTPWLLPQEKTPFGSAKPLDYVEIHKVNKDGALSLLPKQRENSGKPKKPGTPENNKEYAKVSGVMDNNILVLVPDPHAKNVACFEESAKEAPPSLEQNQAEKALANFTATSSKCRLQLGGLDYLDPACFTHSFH
# B1: Δ1-11-hPRL (ligand, human)
# chain: MQVTLRDLFDRAVVLSHYIHNLSSEMFSEFDKRYTHGRGFITKAINSCHTSSLATPEDKEQAQQMNQKDFLSLIVSILRSWNEPLYHLVTEVRGMQEAPEAILSKAVEIEEQTKRLLEGMELIVSQVHPETKENEIYPVWSGLPSLQMADEESRLSAYYNLLHCLRRDSHKIDNYLKLLKCRIIHNNNC
# B2: Δ1-12-hPRL (ligand, human)
# chain: MVTLRDLFDRAVVLSHYIHNLSSEMFSEFDKRYTHGRGFITKAINSCHTSSLATPEDKEQAQQMNQKDFLSLIVSILRSWNEPLYHLVTEVRGMQEAPEAILSKAVEIEEQTKRLLEGMELIVSQVHPETKENEIYPVWSGLPSLQMADEESRLSAYYNLLHCLRRDSHKIDNYLKLLKCRIIHNNNC
# B3: Δ1-13-hPRL (ligand, human)
# chain: MTLRDLFDRAVVLSHYIHNLSSEMFSEFDKRYTHGRGFITKAINSCHTSSLATPEDKEQAQQMNQKDFLSLIVSILRSWNEPLYHLVTEVRGMQEAPEAILSKAVEIEEQTKRLLEGMELIVSQVHPETKENEIYPVWSGLPSLQMADEESRLSAYYNLLHCLRRDSHKIDNYLKLLKCRIIHNNNC
# B4: Δ1-14-hPRL (ligand, human)
# chain: MLRDLFDRAVVLSHYIHNLSSEMFSEFDKRYTHGRGFITKAINSCHTSSLATPEDKEQAQQMNQKDFLSLIVSILRSWNEPLYHLVTEVRGMQEAPEAILSKAVEIEEQTKRLLEGMELIVSQVHPETKENEIYPVWSGLPSLQMADEESRLSAYYNLLHCLRRDSHKIDNYLKLLKCRIIHNNNC
# B5: Δ1-14-G129R-hPRL (ligand, human)
# chain: B4 chain with G116R
# notes: range 15-199; Mature-hormone numbering; also called Δ1-14-G129R-PRL; double mutant Δ1-14-G129R-hPRL
# B6: wild-type human prolactin (ligand, UniProt P01236 29-227, looked up)
# chain: LPICPGGAARCQVTLRDLFDRAVVLSHYIHNLSSEMFSEFDKRYTHGRGFITKAINSCHTSSLATPEDKEQAQQMNQKDFLSLIVSILRSWNEPLYHLVTEVRGMQEAPEAILSKAVEIEEQTKRLLEGMELIVSQVHPETKENEIYPVWSGLPSLQMADEESRLSAYYNLLHCLRRDSHKIDNYLKLLKCRIIHNNNC
# notes: mature; Monomeric fraction used; Residue numbers (Cys4, Cys11, Gly129) count on the mature hormone; also called WT hPRL; hPRL
# B7: G129R-hPRL (ligand, human, UniProt P01236 29-227, looked up)
# chain: B6 chain with G129R
# notes: mature; also called single mutant G129R-hPRL
# Key:
# human prolactin receptor [1] = target: T1, human prolactin receptor; experiment: competition with [125I]-hPRL on HL5 cell homogenates (human PRLR); mean of three experiments
# Description: (§1) The affinity of the various hPRL analogs for the human PRLR was estimated by their ability to compete [¹²⁵I]-hPRL for binding to this receptor. Binding affinities were determined using cell homogenates of HL5 cells (expressing the human PRLR), following the procedure previously described (KINET et al., J. Biol. Chem., 274, 26033-26043, 1999).
# (§2) Briefly, hPRL was iodinated using IODOGEN, and its specific activity was in the range of 40-50 μCi/μg. Binding assays were performed overnight at room temperature using 150-300 μg cell homogenate protein in the presence of 30,000 cpm [¹²⁵I]-hPRL and increasing concentrations of unlabeled competitor (WT or mutated hPRL).
# (§3) The relative binding affinity of hPRL analogs was calculated as the ratio of their IC₅₀ with respect to that of WT hPRL calculated from competition curves (regression in the linear part of sigmoids). Results presented in FIG. 2A are representative of at least three independent experiments performed in duplicate.
# human prolactin receptor [2] = target: T1, human prolactin receptor; experiment: cell-based or functional assay
# human prolactin receptor [3] = target: T1, human prolactin receptor; experiment: competition with [125I]-hPRL on HL5 cell homogenates (human PRLR)
# Description: as §1, §2, §3
# [4] = target: human prolactin receptor (human) (UniProt P16471); experiment: competition with [125I]-hPRL on HL5 cell homogenates (human PRLR); ratio of IC50 to that of WT hPRL
# [5] = target: human prolactin receptor (human) (UniProt P16471); experiment: cell-based or functional assay
# human prolactin receptor [6] = target: T1, human prolactin receptor; experiment: competition of unlabeled WT hPRL with [125I]-hPRL on HL5 cell homogenates (human PRLR); mean of three experiments
# Description: as §1, §2, §3
molecule,measurement,setting,value
Δ1-9-G129R-hPRL (from UniProt P01236 10-199) (ligand),IC50,human prolactin receptor [1],0.166 µg/mL
same,"Ba/F3-hPRLR cell proliferation, antagonism of 10 ng/ml WT hPRL, molar excess needed",human prolactin receptor [2],10 to 50 fold
same,fold lower affinity compared to WT hPRL,human prolactin receptor [3],10 fold
Δ1-9-hPRL (from UniProt P01236 10-199) (ligand),increase in affinity compared to WT hPRL,[4],20%
same,"LHRE-luciferase reporter in HL5 cells, EC50 against WT hPRL",[5],2 fold
same,"LHRE-luciferase reporter in HL5 cells, maximal response against WT hPRL",[5],120 to 140%
Δ1-10-hPRL (from UniProt P01236 11-199) (ligand),"LHRE-luciferase reporter in HL5 cells, EC50 against WT hPRL",[5],2 fold
same,"LHRE-luciferase reporter in HL5 cells, maximal response against WT hPRL",[5],120 to 140%
B1,"LHRE-luciferase reporter in HL5 cells, EC50 against WT hPRL",human prolactin receptor [2],~2 fold
B2,"LHRE-luciferase reporter in HL5 cells, EC50 against WT hPRL",human prolactin receptor [2],~2 fold
B3,"LHRE-luciferase reporter in HL5 cells, EC50 against WT hPRL",human prolactin receptor [2],~2 fold
B4,"LHRE-luciferase reporter in HL5 cells, EC50 against WT hPRL",human prolactin receptor [2],~3 fold
B5,IC50,human prolactin receptor [1],0.187 µg/mL
same,fold lower affinity compared to WT hPRL,human prolactin receptor [3],~10 fold
B6,IC50,human prolactin receptor [6],0.018 µg/mL
B7,fold lower affinity compared to WT hPRL,human prolactin receptor [3],~10 fold

# Reference: patent US20060277614A1 (INSTITUT NAT L DE LA SANTE ET DE LA RECH MED, published 2006)
